These results are taken from patent US20240228986A1, “ENGINEERED CELLS, ENZYMES, AND METHODS FOR PRODUCING CANNABINOIDS” (priority 2021, published 2024).

For test [1], the system named is olivetolic acid. As to the kind of experiment: Fusions of different GPSs with MPT4, in vivo assay (Example 7). The following applies: 1 mM olivetolic acid, 72 h quench; for CBGA / FCBGA: 2% glycerol, strain sCL-SE-0128; for CBGA/FCBGA: product ratio. Format: cell-based, Yarrowia. On the procedure:
As described below, plasmids pCL-SE-0337, 0406, 0452 and 0453 were transformed into strain sCL-SE-0128. Multiple colonies per transformation were precultured for 24 h in YNB containing glycerol (2%), casamino acids (0.5%), and MES (100 mM pH 6.5). Pre-culture was used to inoculate assay medium comprised of YNB containing glycerol (2%), casamino acids (0.5%), MES (100 mM pH 6.5), and olivetolic acid (1 mM). Cultures were quenched after 72 h total growth and assayed for CBGA and F-CBGA. Averages and standard deviations were calculated from replicates.
However, sCL-SE-0128 expresses HMGR and GPS1.1 to increase intracellular GPP levels for prenylation of OA to CBGA. The plasmids that were transformed contain a gene expressing a fusion between two different GPSs and a prenyl-transferase. The same linker is used for all constructs. […] Additionally, as illustrated by GPS2 (pCL-SE-0453), certain GPS-MPT combinations result in very high CBGA/ FCBGA ratios.
(§1) Overnight YPD (10 g/L yeast extract, 20 g/L peptone, 2% dextrose) cultures were inoculated from glycerol stocks of the appropriate strain and grown at 30° C. with 250 rpm shaking. Once cultures had reached an OD600 of 4-6, cultures were centrifuged at 500×g for 5 min, supernatants were discarded, and cell pellets were resuspended in equal volume of water. Resuspended cells were centrifuged at 500×g for 5 min, supernatants were discarded, and cells were resuspended in a volume (75 μL×OD×Vculture) of transformation cocktail (45% PEG-400, 0.1 M LiAc, 0.1 M DTT, and 25 ug/100 μL SS Salmon Sperm DNA). For each transformation, >1 μg of plasmid DNA was added to 55 μL cells/transformation cocktail and vortexed for 2 s. Transformations were incubated at 39° C. for 1 h with 250 rpm shaking. Transformations were resuspended in 750 μL YPD with 1 M sorbitol and recovered at 30° C. overnight with 250 rpm shaking. The next day, transformations were centrifuged at 500×g for 5 min, supernatants were discarded, and cell pellets were resuspended in 750 YPD. Resuspended transformations were plated on YPD with appropriate selection or YNBD (6.71 g/L yeast nitrogen base+nitrogen, 0.5% casamino acids, 2% dextrose) agar plates and grown at 30° C. for 2 days. Individual colonies were patched onto YPD plates with appropriate selection or YNBD plates and grown at 30° C. overnight. Patches were used to inoculate 0.5 mL YPD with appropriate selection or YNBD precultures in 96 w blocks and grown at 30° C. for 24-48 h with 1000 rpm shaking. For assays, 0.5 mL YPD with appropriate selection or YNBD cultures containing substrate were inoculated with 2 μL from precultures and grown at 30° C. for 2-4 days with 1000 rpm shaking with 2% glucose added every 24 h. Assay cultures were quenched by addition of 0.5 mL ethanol with 0.2% formic acid and 0.5 mg/mL pentyl-benzoic acid. Precipitates were pelleted by centrifuging at 4600×g for 10 min and then 200 μL was transferred to fresh plates, sealed, and analyzed via HPLC.
(§2) All samples were quenched with equal volume of EtOH containing 0.2 mg/mL internal standard (3,5-Diisopropyl-2-hydroxybenzoic acid CAS #2215-21-6) centrifuged, and clarified solutions were analyzed by HPLC-MS
(§3) • Column: 2.1×50 mm COSMOCORE PBr (Nacalai USA, Inc.) • Mobile Phase: A; 0.1% formic acid in water, B; 0.1% formic acid in acetonitrile • Flow: 0.45 mL/min • Temp: % 50 Celsius • Gradient: 20%B at 0 min, 70%B at 2.3 min, 89% B at 4.2 min, 20% B at 4.3 min, 20%B at 6 min

Test [2] relates to olivetolic acid. As to the kind of experiment: MPT fusions with GPS1.1 vs unfused MPTs, OA feed (Example 8, Table 9). It is filed as cell-based, Yarrowia. As to conditions: 2 mM olivetolic acid, 48 h quench; for CBGA / FCBGA: 2% glucose, strain sCL-SE-0128; for CBGA/FCBGA: product ratio. As for the experimental part: As described below, plasmids pCL-SE-0406, pCL-SE-0664, pCL-SE-0663, pCL-SE-0662, pCL-SE-0380 (MPT4), pCL-SE-0337.MPT21, pCL-SE-0337.MPT26, and pCL-SE-0337.MPT31 were transformed into strain sCL-SE-0128. Multiple colonies per transformation were precultured for 48 h in YNB containing glucose (2%), casamino acids (0.5%), and MES (100 mM pH 6.5). Pre-culture was used to inoculate assay medium comprised of YNB containing glucose (2%), casamino acids (0.5%), MES (100 mM pH 6.5), and olivetolic acid (2 mM). Cultures were quenched with equal volume of ethanol after 48 h total growth and assayed for CBGA and FCBGA. Averages and standard deviations were calculated from replicates.
as §1, §2, §3

A further test relates to divarinic acid (DVA). As to the kind of experiment: Screening of MPT library hits in Yarrowia, DVA feed (Example 2). Format: cell-based. As to conditions: DVA Feed (96 h); for CBGVA: 2 mM DVA, minimal media, 0.5% ethanol, strain sCL-SE-0128, product accumulated; for CBGVA/FCBGVA: product ratio. On the procedure: (§4) As described in detail below, plasmid pCL-SE-0337.MPT21,26,31 were transformed into strain sCL-SE-0128 and 4 separate colonies of each were patched and precultured for 48 h. Assay cultures consisted of minimal media with 100 mM MES pH 6.5, 0.5% ethanol and 2 mM olivetolic or divarinic acid (DVA). Cultures with olivetolic acid were quenched with equal volume of ethanol after 48 h total growth while cultures with DVA with quenched after 96 h total growth. Enzymes produced CBGA and FCBGA from olivetolic acid and CBGVA and FCBGVA from DVA. Averages and standard deviations were calculated from replicates.
as §1, §2, §3

For test [3], the system named is olivetolic acid. As to the kind of experiment: Screening of MPT library hits in Yarrowia, OA feed (Example 2). Format: cell-based. As to conditions: OA Feed (48 h); for CBGA: 2 mM olivetolic acid, minimal media, 0.5% ethanol, strain sCL-SE-0128, product accumulated; for CBGA/FCBGA: product ratio. On the procedure:
as §4, §1, §2, §3

B1: GPS2-F11-MPT4: fusion protein, SEQ ID NO: 21 (protein)
chain: MKDVSLSSFDAHDLDLDKFPEVVRDRLTQFLDAQELTIADIGAPVTDAVAHLRSFVLNGGKRIRPLYAWAGFLAAQGHKNSSEKLESVLDAAASLEFIQACALIHDDIIDSSDTRRGAPTVHRAVEADHRANNFEGDPEHFGVSVSILAGDMALVWAEDMLQDSGLSAEALARTRDAWRGMRTEVIGGQLLDIYLESHANESVELADSVNRFKTAAYTIARPLHLGASIAGGSPQLIDALLHYGHDIGIAFQLRDDLLGVFGDPAITGKPAGDDIREGKRTVLLALALQRADKQSPEAATAIRAGVGKVTSPEDIAVITEHIRATGAEEEVEQRISQLTESGLAHLDDVDIPDEVRAQLRALAIRSTERRMGGAEAAAKEAAAKAGGSGGGSGGGGSGGSGGGGSGGGGSMSDNSIATKILNFGHTCWKLQRPYVVKGMISIACGLFGRELFNNRHLFSWGLMWKAFFALVPILSFNFFAAIMNQIYDVDIDRINKPDLPLVSGEMSIETAWILSIIVALTGLIVTIKLKSAPLFVFIYIFGIFAGFAYSVPPIRWKQYPFTNFLITISSHVGLAFTSYSATTSALGLPFVWRPAFSFIIAFMTVMGMTIAFAKDISDIEGDAKYGVSTVATKLGARNMTFVVSGVLLLNYLVSISIGIIWPQVFKSNIMILSHAILAFCLIFQTRELALANYASAPSRQFFEFIWLLYYAEYFVYVFI
modifications: GPS2-F11-MPT4, geranyl diphosphate synthase, membrane-bound prenyltransferase fusion protein
For the molecule B1, in the test on olivetolic acid [1], the CBGA came to 282 ± 69 µM, the FCBGA is 11 ± 2 µM and the CBGA/FCBGA was determined as 26.8.

B2: MPT26 (protein)
chain: MSDNSIATKILNFGHTCWKLQRPYVVKGMISIACGLFGKELLHNTNLISWGLMWKAFFALVPILSFNFFAAIMNQIYDVDIDRINKPDLPLVSGEMSIETAWILSIIVALTGLIVTIKLKSAPLFVFIYIFGIFAGFAYSVPPIRWKQNPSTNFLITISSHVGLAFTSYSATTSALGLPFVWRPAFSFIIAFMTVMGMTIAFAKDISDIEGDAKYGVSTVATKLGARNMTFVVSGVLLLNYVAAILAGIIWPQAFNSNVMLLSHAILAFWLILQTRDFALTNYDPEAGRRFFEFIWLLYYAEYFVYVFI
modifications: MPT26 (recombinant membrane-bound prenyltransferase)
With B2, in the test with olivetolic acid [2], the CBGA was determined as 61 ± 5 µM, the FCBGA came out at 14 ± 1 µM and the CBGA/FCBGA is reported as 4.4. Further, in the test with divarinic acid (DVA), the CBGVA turned out to be 620 ± 134 µM and the CBGVA/FCBGVA came out at 13.7. Also, in the test on olivetolic acid [3], the CBGA amounted to 261 ± 62 µM and the CBGA/FCBGA amounted to 4.5.

B3: GPS3-F11-MPT4: fusion protein, SEQ ID NO: 20 (protein)
chain: MQLLNPPQKGKKAVEFDFNKYMDSKAMTVNEALNKAIPLRYPQKIYESMRYSLLAGGKRVRPVLCIAACELVGGTEELAIPTACAIEMIHTMSLMHDDLPCIDNDDLRRGKPTNHKIFGEDTAVTAGNALHSYAFEHIAVSTSKTVGADRILRMVSELGRATGSEGVMGGQMVDIASEGDPSIDLQTLEWIHIHKTAMLLECSVVCGAIIGGASEIVIERARRYARCVGLLFQVVDDILDVTKSSDELGKTAGKDLISDKATYPKLMGLEKAKEFSDELLNRAKGELSCFDPVKAAPLLGLADYVAFRQNGGAEAAAKEAAAKAGGSGGGSGGGGSGGSGGGGSGGGGSMSDNSIATKILNFGHTCWKLQRPYVVKGMISIACGLFGRELFNNRHLFSWGLMWKAFFALVPILSFNFFAAIMNQIYDVDIDRINKPDLPLVSGEMSIETAWILSIIVALTGLIVTIKLKSAPLFVFIYIFGIFAGFAYSVPPIRWKQYPFTNFLITISSHVGLAFTSYSATTSALGLPFVWRPAFSFIIAFMTVMGMTIAFAKDISDIEGDAKYGVSTVATKLGARNMTFVVSGVLLLNYLVSISIGIIWPQVFKSNIMILSHAILAFCLIFQTRELALANYASAPSRQFFEFIWLLYYAEYFVYVFI
modifications: GPS3-F11-MPT4, geranyl diphosphate synthase, membrane-bound prenyltransferase fusion protein
Take B3: in the test on olivetolic acid [1], the CBGA worked out at 255 ± 22 µM, the FCBGA came out at 41 ± 3 µM and the CBGA/FCBGA turned out to be 6.2.

B4: MPT31 (protein)
chain: MSDNSIATKILNFGHACWKLQRPYVVKGMISIACGLFGRELLHNTNLISWGLMWKAFFALVPILSFNFFAAIMNQIYDLHIDRINKPDLPLASGEISVNTAWIMSIIVALTGLIVTIKLKSAPLFVFIYIFGIFAGFAYSVPPIRWKQNPSTNFLITISSHVGLAFTSYYASRAALGLPFELRPSFTFLLAFMTVMGMTIAFAKDISDIEGDAKYGVSTVATKLGARNMTFVVSGVLLLNYLVSISIGIIWPQVFKSNIMILSHAILAFWLILQTRDFALTNYDPEAGRRFFEFIWLLYYAEYLVYVFI
modifications: MPT31 (recombinant membrane-bound prenyltransferase)
Consider B4, for which, in the test on olivetolic acid [2], the CBGA was found to be 40 ± 12 µM, the FCBGA is 3 ± 2 µM and the CBGA/FCBGA worked out at 13.4. For the same molecule, in the test on divarinic acid (DVA), the CBGVA worked out at 260 ± 79 µM and the CBGVA/FCBGVA is reported as 22.6. In the test with olivetolic acid [3], the CBGA was 175 ± 63 µM and the CBGA/FCBGA was 13.9.
